From the supplement of paper PMC11246515
± gives the standard deviation of the averaged measurements.

Test: total protein half-life in vivo (active degradation + dilution); higher = more stable protein
[1] = E. coli NCM3722 delta-clpP, growth: N-lim chemostat, doubling time 6 h
[2] = E. coli NCM3722 delta-lon, growth: N-lim chemostat, doubling time 6 h
[3] = E. coli NCM3722 delta-smpB, growth: N-lim chemostat, doubling time 6 h
[4] = wild type E. coli NCM3722, growth: C-lim chemostat, doubling time 3 h
[5] = wild type E. coli NCM3722, growth: C-lim chemostat, doubling time 6 h
[6] = wild type E. coli NCM3722, growth: C-lim chemostat, doubling time 12 h
[7] = wild type E. coli NCM3722, growth: N-lim chemostat, doubling time 6 h
[8] = wild type E. coli NCM3722, growth: N-lim chemostat, doubling time 12 h
[9] = wild type E. coli NCM3722, growth: P-lim chemostat, doubling time 6 h
[10] = wild type E. coli NCM3722, growth: P-lim chemostat, doubling time 12 h
[11] = E. coli NCM3722 delta-hslV, growth: N-lim chemostat, doubling time 6 h
[12] = E. coli NCM3722 delta-clpP delta-lon delta-hslV, growth: N-lim chemostat, doubling time 6 h

Sequence | total protein half-life in vivo [1] [h] | total protein half-life in vivo [2] [h] | total protein half-life in vivo [3] [h] | total protein half-life in vivo [4] [h] | total protein half-life in vivo [5] [h] | total protein half-life in vivo [6] [h] | total protein half-life in vivo [7] [h] | total protein half-life in vivo [8] [h] | total protein half-life in vivo [9] [h] | total protein half-life in vivo [10] [h] | total protein half-life in vivo [11] [h] | total protein half-life in vivo [12] [h]
MDRFPRSDSIVQPRAGLQTYMAQVYGWMTVGLLLTAFVAWYAANSAAVMELLFTNRVFLIGLIIAQLALVIVLSAMIQKLSAGVTTMLFMLYSALTGLTLSSIFIVYTAASIASTFVVTAGMFGAMSLYGYTTKRDLSGFGNMLFMALIGIVLASLVNFWLKSEALMWAVTYIGVIVFVGLTAYDTQKLKNMGEQIDTRDTSNLRKYSILGALTLYLDFINLFLMLLRIFGNRR [P0AAC4] | 3.08 | 2.51 | 2.75 | 2.15 ± 0.5 | 2.98 | 6.02 | 3.09 | 5.33 | 3.85 ± 0.28 | 6.88 ± 0.24 |  | 
MPHIDIKCFPRELDEQQKAALAADITDVIIRHLNSKDSSISIALQQIQPESWQAIWDAEIAPQMEALIKKPGYSMNA |  |  |  |  |  |  |  |  | 2.92 |  |  | 
MGKLGENVPLLIDKAVDFMASSQAFREYLKKLPPRNAIPSGIPDESVPLYLQRLEYYRRLYRPKQVEGQ [Q2M7R5] | 4.46 ± 1.4 | 3.4 | 3.22 ± 0.16 | 1.99 ± 0.42 | 4.09 ± 0.43 | 4.69 | 2.94 ± 0.43 | 4.57 ± 1.1 | 3.73 ± 0.57 | 8.27 ± 0.33 | 3.56 | 
MQAYFDQLDRVRYEGSKSSNPLAFRHYNPDELVLGKRMEEHLRFAACYWHTFCWNGADMFGVGAFNRPWQQPGEALALAKRKADVAFEFFHKLHVPFYCFHDVDVSPEGASLKEYINNFAQMVDVLAGKQEESGVKLLWGTANCFTNPRYGAGAATNPDPEVFSWAATQVVTAMEATHKLGGENYVLWGGREGYETLLNTDLRQEREQLGRFMQMVVEHKHKIGFQGTLLIEPKPQEPTKHQYDYDAATVYGFLKQFGLEKEIKLNIEANHATLAGHSFHHEIATAIALGLFGSVDANRGDAQLGWDTDQFPNSVEENALVMYEILKAGGFTTGGLNFDAKVRRQSTDKYDLFYGHIGAMDTMALALKIAARMIEDGELDKRIAQRYSGWNSELGQQILKGQMSLADLAKYAQEHHLSPVHQSGRQEQLENLVNHYLFDK |  |  |  | 2.93 ± 0.26 | 4.84 ± 0.15 | 8.63 ± 0.81 | 3.53 |  | 5.81 ± 0.47 | 11.6 ± 0.51 | 2.75 | 4.53 ± 0.48
MKNNSQLLMPREKMLKFGISALTDVELLALFLRTGTRGKDVLTLAKEMLENFGSLYGLLTSEYEQFSGVHGIGVAKFAQLKGIAELARRYYNVRMREESPLLSPEMTREFLQSQLTGEEREIFMVIFLDSQHRVITHRRLFSGTLNHVEVHPREIIREAIKINASALILAHNHPSGCAEPSKADKLITERIIKSCQFMDLRVLDHIVIGRGEYVSFAERGWI |  |  |  | 3.03 |  |  | 4.31 |  |  |  |  | 
MAELTALHTLTAQMKREGIRRLLVLSGEEGWCFEHTLKLRDALPGDWLWISPRPDAENHCSPSALQTLLGREFRHAVFDARHGFDAAAFAALSGTLKAGSWLVLLLPVWEEWENQPDADSLRWSDCPDPIATPHFVQHLKRVLTADNEAILWRQNQPFSLAHFTPRTDWYPATGAPQPEQQQLLKQLMTMPPGVAAVTAARGRGKSALAGQLISRIAGRAIVTAPAKASTDVLAQFAGEKFRFIAPDALLASDEQADWLVVDEAAAIPAPLLHQLVSRFPRTLLTTTVQGYEGTGRGFLLKFCARFPHLHRFELQQPIRWAQGCPLEKMVSEALVFDDENFTHTPQGNIVISAFEQTLWQSDPETPLKVYQLLSGAHYRTSPLDLRRMMDAPGQHFLQAAGENEIAGALWLVDEGGLSQQLSQAVWAGFRRPRGNLVAQSLAAHGNNPLAATLRGRRVSRIAVHPARQREGTGRQLIAGALQYTQDLDYLSVSFGYTGELWRFWQRCGFVLVRMGNHREASSGCYTAMALLPMSDAGKQLAEREHYRLRRDAQALAQWNGETLPVDPLNDAVLSDDDWLELAGFAFAHRPLLTSLGCLLRLLQTSELALPALRGRLQKNASDAQLCTTLKLSGRKMLLVRQREEAAQALFALNDVRTERLRDRITQWQLFH | 4.59 ± 0.41 | 4.56 ± 0.19 | 4.39 ± 0.29 | 3.04 ± 0.3 | 6.05 ± 0.38 |  | 4.07 ± 1.4 | 7.56 ± 0.58 | 6.65 ± 0.2 | 12.2 ± 1.5 | 4.37 ± 0.39 | 5 ± 1.1
MQYWGKIIGVAVALLMGGGFWGVVLGLLIGHMFDKARSRKMAWFANQRERQALFFATTFEVMGHLTKSKGRVTEADIHIASQLMDRMNLHGASRTAAQNAFRVGKSDNYPLREKMRQFRSVCFGRFDLIRMFLEIQIQAAFADGSLHPNERAVLYVIAEELGISRAQFDQFLRMMQGGAQFGGGYQQQTGGGNWQQAQRGPTLEDACNVLGVKPTDDATTIKRAYRKLMSEHHPDKLVAKGLPPEMMEMAKQKAQEIQQAYELIKQQKGFK | 6.42 ± 1.5 | 5.92 ± 0.42 | 5.91 ± 0.58 | 2.98 ± 0.14 | 5.97 ± 0.2 | 11.2 ± 0.66 | 6.24 ± 0.77 | 11.8 ± 1 | 6.61 ± 0.12 | 12.7 ± 1 |  | 
MKITKITTYRLPPRWMFLKIETDEGVVGWGEPVIEGRARTVEAAVHELGDYLIGQDPSRINDLWQVMYRAGFYRGGPILMSAIAGIDQALWDIKGKVLNAPVWQLMGGLVRDKIKAYSWVGGDRPADVIDGIKTLREIGFDTFKLNGCEELGLIDNSRAVDAAVNTVAQIREAFGNQIEFGLDFHGRVSAPMAKVLIKELEPYRPLFIEEPVLAEQAEYYPKLAAQTHIPLAAGERMFSRFDFKRVLEAGGISILQPDLSHAGGITECYKIAGMAEAYDVTLAPHCPLGPIALAACLHIDFVSYNAVLQEQSMGIHYNKGAELLDFVKNKEDFSMVGGFFKPLTKPGLGVEIDEAKVIEFSKNAPDWRNPLWRHEDNSVAEW [Q6BF17] | 1.75 ± 0.17 |  | 1.27 ± 0.18 | 2.67 ± 0.21 | 3.47 ± 0.4 | 5.79 ± 0.88 | 2.5 | 1.84 | 4.36 ± 0.18 | 7.25 ± 0.96 |  | 3.02 ± 0.17
MMSESNKQQAVNKLTEIVANFTAMISTRMPDDVVDKLKQLKDAETSSMGKIIYHTMFDNMQKAIDLNRPACQDTGEIMFFVKVGSRFPLLGELQSILKQAVEEATVKAPLRHNAVEIFDEVNTGKNTGSGVPWVTWDIIPDNDDAEIEVYMAGGGCTLPGRSKVLMPSEGYEGVVKFVFENISTLAVNACPPVLVGVGIATSVETAAVLSRKAILRPIGSRHPNPKAAELELRLEEGLNRLGIGPQGLTGNSSVMGVHIESAARHPSTIGVAVSTGCWAHRRGTLLVHADLTFENLSHTRSAL | 6.19 | 6.4 |  |  |  |  | 6.42 |  | 5.88 |  | 6.18 | 
MTPLVKDIIMSSTRMPALFLGHGSPMNVLEDNLYTRSWQKLGMTLPRPQAIVVVSAHWFTRGTGVTAMETPPTIHDFGGFPQALYDTHYPAPGSPALAQRLVELLAPIPVTLDKEAWGFDHGSWGVLIKMYPDADIPMVQLSIDSSKPAAWHFEMGRKLAALRDEGIMLVASGNVVHNLRTVKWHGDSSPYPWATSFNEYVKANLTWQGPVEQHPLVNYLDHEGGTLSNPTPEHYLPLLYVLGAWDGQEPITIPVEGIEMGSLSMLSVQIG | 3.18 |  |  | 2.85 | 5.76 | 11.3 | 3.76 |  | 5.45 | 10.5 ± 0.65 |  | 
MEMTNAQRLILSNQYKMMTMLDPANAERYRRLQTIIERGYGLQMRELDREFGELKEETCRTIIDIMEMYHALHVSWSNLQDQQSIDERRVTFLGFDAATEARYLGYVRFMVNVEGRYTHFDAGTHGFNAQTPMWEKYQRMLNVWHACPRQYHLSANEINQIINA [P0A8W8] | 6.41 ± 0.99 | 6.11 ± 0.3 | 5.32 ± 0.45 | 3.28 ± 0.18 | 6.14 ± 0.35 | 12.1 ± 0.18 | 5.83 ± 0.58 | 12.9 ± 2.1 | 6.41 ± 0.61 | > 16 | 6.154 ± 0.032 | 6.72 ± 0.27
MMRKMLLAAALSVTAMTAHADYQCSVTPRDDVIVSPQTVQVKGENGNLVITPDGNVMYNGKQYSLNAAQREQAKDYQAELRSTLPWIDEGAKSRVEKARIALDKIIVQEMGESSKMRSRLTKLDAQLKEQMNRIIETRSDGLTFHYKAIDQVRAEGQQLVNQAMGGILQDSINEMGAKAVLKSGGNPLQNVLGSLGGLQSSIQTEWKKQEKDFQQFGKDVCSRVVTLEDSRKALVGNLK [P0ADS9] | 5 ± 1 | 6.04 ± 0.83 | 5.818 ± 0.046 | 2.92 ± 0.17 | 5.11 ± 0.8 | 8.05 ± 1.5 | 5.76 ± 0.15 | 10.3 ± 0.12 | 5.0188 ± 0.0027 | 10 ± 0.48 | 5.36 ± 0.32 | 3.83 ± 0.21
MFEPMELTNDAVIKVIGVGGGGGNAVEHMVRERIEGVEFFAVNTDAQALRKTAVGQTIQIGSGITKGLGAGANPEVGRNAADEDRDALRAALEGADMVFIAAGMGGGTGTGAAPVVAEVAKDLGILTVAVVTKPFNFEGKKRMAFAEQGITELSKHVDSLITIPNDKLLKVLGRGISLLDAFGAANDVLKGAVQGIAELITRPGLMNVDFADVRTVMSEMGYAMMGSGVASGEDRAEEAAEMAISSPLLEDIDLSGARGVLVNITAGFDLRLDEFETVGNTIRAFASDNATVVIGTSLDPDMNDELRVTVVATGIGMDKRPEITLVTNKQVQQPVMDRYQQHGMAPLTQEQKPVAKVVNDNAPQTAKEPDYLDIPAFLRKQAD [P0A9A6] | 5.13 ± 0.67 | 1.95 ± 0.19 | 1.95 ± 0.0047 | 1.25 ± 0.079 | 1.97 ± 0.13 | 2.7 ± 0.23 | 1.79 ± 0.093 | 2.79 ± 0.26 | 2.53 ± 0.23 | 4.37 ± 0.54 | 1.86 ± 0.3 | 5.406 ± 0.043
MKKIIALMLFLTFFAHANDSEPGSQYLKAAEAGDRRAQYFLADSWFSSGDLSKAEYWAQKAADSGDADACALLAQIKITNPVSLDYPQAKVLAEKAAQAGSKEGEVTLAHILVNTQAGKPDYPKAISLLENASEDLENDSAVDAQMLLGLIYANGVGIKADDDKATWYFKRSSAISRTGYSEYWAGMMFLNGEEGFIEKNKQKALHWLNLSCMEGFDTGCEEFEKLTNG [P0AF56] | 2.24 ± 1.1 | 1.32 | 0.675 | 1.04 ± 0.074 | 1.62 ± 0.75 | 2.73 ± 2.1 | 1.12 | 0.655 | 1.33 ± 0.63 | 1.48 ± 0.49 |  | 2.83 ± 0.045
MRNFDLSPLYRSAIGFDRLFNHLENNQSQSNGGYPPYNVELVDENHYRIAIAVAGFAESELEITAQDNLLVVKGAHADEQKERTYLYQGIAERNFERKFQLAENIHVRGANLVNGLLYIDLERVIPEAKKPRRIEIN [P0C054] | 3.11 ± 0.15 | 2.83 ± 0.24 | 1.35 ± 0.082 | 1.2 ± 0.21 | 1.83 ± 0.025 | 1.87 ± 0.3 | 1.65 ± 0.42 | 2.7 ± 0.45 | 1.58 ± 0.077 | 3.08 ± 0.14 | 1.47 ± 0.1 | 
MSSHPYVTQQNTPLADDTTLMSTTDLQSYITHANDTFVQVSGYTLQELQGQPHNMVRHPDMPKAAFADMWFTLKKGEPWSGIVKNRRKNGDHYWVRANAVPMVREGKISGYMSIRTRATDEEIAAVEPLYKALNAGRTSKRIHKGLVVRKGWLGKLPSLPLRWRARGVMTLMFILLAAMLWFVAAPVVTYILCALVVLLASACFEWQIVRPIENVAHQALKVATGERNSVEHLNRSDELGLTLRAVGQLGLMCRWLINDVSSQVSSVRNGSETLAKGTDELNEHTQQTVDNVQQTVATMNQMAASVKQNSATASAADKLSITASNAAVQGGEAMTTVIKTMDDIADSTQRIGTITSLINDIAFQTNILALNAAVEAARAGEQGKGFAVVAGEVRHLASRSANAANDIRKLIDASADKVQSGSQQVHAAGRTMEDIVAQVKNVTQLIAQISHSTLEQADGLSSLTRAVDELNLITQKNAELVEESAQVSAMVKHRASRLEDAVTVLH |  |  |  | 2.72 ± 0.7 |  |  |  |  |  |  |  | 
